B1: H2-Kb / Ed16-30 (parent complex)
chain 1: GEQVEQRPPHLSVREGDSAVIICTYTDPNSYYFFWYKQEPGAGLQLLMKVFSSTEINEGQGFTVLLNKKDKQLSLNLTAAHPGDSAVYFCAVSEPSSGQKLVFGQGTILKVYL
chain 2: EAAVTQSPRNKVAVTGGKVTLSCNQTNNHNNMYWYRQDTGHGLRLIHYSYGAGSTEKGDIPDGYKASRPSQENFSLILELATPSQTSVYFCAGRDTGQLYFGEGSKLTVL
chain 3: not shown
chain 4: IQKTPQIQVYSRHPPENGKPNILNCYVTQFHPPHIEIQMLKNGKKIPKVEMSDMSFSKDWSFYILAHTEFTPTETDTYACRVKHDSMAEPKTVYWDRDM
chain 5: SIINFEKL
B2: H2-Kb / Ed40 (parent complex)
chain 1: GDSVTQTEGPVTVSESESLIINCTYSATSIAYPNLFWYVRYPGEGLQLLLKVITAGQKGSSRGFEATYNKETTSFHLQKASVQESDSAVYYCALGDGYTGNYKYVFGAGTRLKVIA
chain 2: DSGVVQSPRHIIKEKGGRSVLTCIPISGHSNVVWYQQTLGKELKFLIQHYEKVERDKGFLPSRFSVQQFDDYHSEMNMSALELEDSAMYFCASSGASAETLYFGSGTRLTVL
chain 3: not shown
chain 4: B1 chain 4
chain 5: SIINFEKL

Variants of: B1
Assay: % of reporter cells activated (NFAT-GFP), raw
Also: test concentration or dose not given here.

| Variant | ratio to parent |
| --- | --- |
| chain 5 L8A | 1.04 |
| chain 5 L8G | 0.904 |
| chain 5 E6S | 0.609 |
| chain 5 E6M | 0.399 |
| chain 5 E6A | 0.508 |
| chain 5 E6I | 0.00701 |
| chain 5 E6L | 0.387 |
| chain 5 I3N | 0.507 |
| chain 5 I3M | 0.425 |
| chain 5 I3H | 0.558 |
| chain 5 I3P | 0.64 |
| chain 5 I3K | 0.779 |
| chain 5 I3V | 1.11 |
| chain 5 I2Y | 0.774 |
| chain 5 I2A | 1.2 |
| chain 5 I2P | 1.06 |
| chain 5 I2N | 0.951 |
| chain 5 I2K | 0.978 |
| chain 5 I2S | 1.19 |
| chain 5 I2E | 1.21 |
| chain 5 F5E | 0.752 |
| chain 5 F5L | 1.21 |
| chain 5 F5C | 1.23 |
| chain 5 K7W | 0.74 |
| chain 5 K7V | 0.687 |
| chain 5 K7E | 0.0275 |
| chain 5 K7D | 0.162 |
| chain 5 K7G | 0.381 |
| chain 5 K7T | 0.716 |
| chain 5 K7I | 0.61 |

Continued, values first:

| ratio to parent | Variant |
| --- | --- |
| 1.08 | chain 5 L8M |
| 1.13 | chain 5 L8Q |
| 1.04 | chain 5 L8S |
| 1.06 | chain 5 L8H |
| 0.798 | chain 5 L8N |
| 1 | chain 5 L8K |
| 0.0363 | chain 5 N4C |
| 0.0158 | chain 5 N4A |
| 0.0259 | chain 5 N4T |
| 0.0762 | chain 5 N4M |
| 0.165 | chain 5 N4H |
| 0.0853 | chain 5 N4K |
| 0.318 | chain 5 N4R |
| 0.0223 | chain 5 N4S |
| 0.0976 | chain 5 S1P |
| 0.0535 | chain 5 S1E |
| 0.55 | chain 5 S1Y |
| 0.323 | chain 5 S1Q |
| 0.631 | chain 5 S1A |
| 0.025 | chain 5 S1F |
| 0.186 | chain 5 S1C |
| 0.632 | chain 5 S1M |
| 0.313 | chain 5 S1L |

Variants of: B2
Assay: % of reporter cells activated (NFAT-GFP), raw

| Variant | ratio to parent |
| --- | --- |
| chain 5 E6G | 0.464 |
| chain 5 E6H | 0.172 |
| chain 5 I3C | 0.523 |
| chain 5 I3V | 0.69 |
| chain 5 I3Y | 0.762 |
| chain 5 I3T | 0.423 |
| chain 5 I3G | 0.319 |
| chain 5 F5E | 0.52 |
| chain 5 K7L | 0.192 |
| chain 5 K7R | 0.622 |
| chain 5 K7T | 0.224 |
| chain 5 I2G | 0.922 |
| chain 5 I2S | 1.1 |

Second part, the variant after the results:

| ratio to parent | Variant |
| --- | --- |
| 0.335 | chain 5 S1W |
| 0.399 | chain 5 S1K |
| 0.892 | chain 5 S1D |
| 1 | chain 5 S1G |
| 0.681 | chain 5 S1Q |
| 0.885 | chain 5 L8T |
| 0.595 | chain 5 L8G |
| 0.0157 | chain 5 N4Y |
| 0.00333 | chain 5 N4T |

— paper PMC11480844 (2024)
